The results in this text go back to the DeepSol protein solubility set.

A short description of the data set: soluble on expression in E. coli; label from the status in PepcDB or PDB records.
Consider “MGIKGLSQVIADNAPSAIKVNEMKAFFGRTVAIDASMCLYQFLIAVRQDGSQLQSEDGETTSHLMGMLNRTVRMFENGVKPVYVFDGKPPDMKGGELEKRSERRAEAEKALTEAKEKGDVKEAEKFERRLVKVTKQQNDEAKRLLGLMGIPVVEAPCEAEAQCAHLVKAGKVFGTVTEDMDALTFGSTVLLRHFLAPVAKKIPIKEFNLSLALEEMKLSVEEFIDLCILLGCDYCGTIRGVGPKKAVELIRQHKNIETILENIDQNKYPPPEDWPYKRARELFLNPEVTKPEEVELTWKEADVEGVIQFLCGEKNFNEERIRNALAKLKTSRKSGTQGRIDSFFGNSTKVTCVTAATKRKAEEAEKAKKGAKKGGPPKKRAK”, for which the “soluble on expression in E. coli” value is on record as “not soluble”. To “PEGPEIRRAADNLEAAIKGKPLTDVWFAFPQLKTYQSQLIGQHVTHVETRGKALLTHFSNDLTLYSHNQLYGVWRVVDTGEEPQTTRVLRVKLQTADKTILLYSASDIEMLRPEQLTTHPFLQRVGPDVLDPNLTPEVVKERLLSPRFRNRQFAGLLLDQAFLAGLGNYLRVEILWQVGLTGNHKAKDLNAAQLDALAHALLEIPRFSYATRGQVDENKHHGALFRFKVFHRDGEPCERCGSIIEKTTLSSRPFYWCPGCQH” belongs “soluble”.

Regarding “MQKKSIYVAYTGGTIGMQRSEQGYIPVSGHLQRQLALMPEFHRPEMPDFTIHEYTPLMDSSDMTPEDWQHIAEDIKAHYDDYDGFVILHGTDTMAYTASALSFMLENLGKPVIVTGSQIPLAELRSDGQINLLNALYVAANYPINEVTLFFNNRLYRGNRTTKAHADGFDAFASPNLPPLLEAGIHIRRLNTPPAPHGEGELIVHPITPQPIGVVTIYPGISADVVRNFLRQPVKALILRSYGVGNAPQNKAFLQELQEASDRGIVVVNLTQCMSGKVNMGGYATGNALAHAGVIGGADMTVEATLTKLHYLLSQELDTETIRKAMSQNLRGELTPDD”, the “soluble on expression in E. coli” value was “soluble”. For the sequence “MKTYDPATAVKTTGEFNGKKRFAVLLMGTDTGALNRTEKRGRTDTMILAVVNPAKKRYTLVSIPRDTMAQMVGSSSFTTEKINAAYEIGGARMSMDSVSALINVPIKYYAVVNMGGIMKMIRYVGGINIRPTLSFEYGGYVFKKGKLTHMGGAGALAYSRMRYDDPRGDYGRQERQRQVITTLIKKAVSVSSLTNLDSILTSVSSNVRTNLPFSALQQIALNYRGCANSSSSDYLHGYNAMIDDAAYQVQPTEELQRISDLVRTELGLEHHHHHH”, the “soluble on expression in E. coli” value was “soluble”. For “MYLSRITLHTSELSPAQLLHLVERGEYVMHQWLWDLFPGSKERQFLYRREELQGAFRFFVLSQEQPAASAIFDVQTRPFAPTLSAGQTLRFNLRANPTVCKNGKRHDLLMEAKRQRKTQGDSQDIWSYQQQAALTWLARQGEQNGFTLREASVDAYRQQQIRRGKDRQMIQFSSVDYTGVLVINEPALFLQRLAQGFGKSRAFGCGMMMIKPGDDA” the value was “not soluble”. For “LITPQYKSEAKLYILSKETTLTSLADLQIGSQLTQDYKVLVSSRPVMEGVINHLKLDYSYKELAGKLTVENPQNTRILSLTVRDENPYMAKQIVDDIANTASDYIGEIMEMVPPKMIEDGVVASEPYSPSIKRN” the value was “not soluble”.

With “MENPLQKARILVNQLEKYLDHYAKEYDVEHLAGPQGHLVMYLYKHPDKDMSIKAVEEILHISKSVASNLVKRMEKNGFIAIVPSKTDKRVKYLYLTHLGKKKATQFEIFLEKLHSTMLAGITKEEIRTTKKVIRTLAKNMAMENLD”, the “soluble on expression in E. coli” value is reported as “soluble”. To “MSTRLTTLSHTSEGHRVSVHYGYDDKGRLTGERQTVENPETGELLWHHETGHAYNEQGLANRVTPDSLPPVEWLTYGSGYLAGMKLGGTPLLEFTRDRLHRETVRSFGSMAGSNAAYKLTSTYTPAGQLQSQHLNSLVYDRDYGWNDNGDLVRISGPRQTREYGYSATGRLESVRTLAPDLDIRIPYATDPAGNRLPDPELHPDSTLTVWPDNRIAEDAHYVYRHDEYGRLTEKTDRIPAGVIRTDDERTHHYHYDSQHRLVFYTRIQHGEPLVESRYLYDPLGRRMAKRVWRRERDLTGWMSLSRKPEVTWYGWDGDRLTTVQTDTTRIQTVYEPGSFTPLIRVETENGEREKAQRRSLAETLQQEGSENGHGVVFPAELVRLLDRLEEEIRADRVSSESRAWLAQCGLTVEQLARQVEPEYTPARKVHFYHCDHRGLPLALISEDGNTAWRGEYDEWGNQLNEENPHHLHQPYRLPGQQHDEESGLYYNRHRHYDPLQGRYITPDPIGLRGGWNMYQYPLNPIQVIDPMGLDAIENMTSGGLIYAVSGVPGLIAANSITNSAYQFGYDMDAIVGGAHNGAADAMRHCYLMCRMTKTFGSTIADVIGKNHEAAGDRQGQPAKERIMDLKNNTVGIACGDFSAKCSDACIEKYNTGQLFGLDGIKADNPIKAKQGSSDASNYLEHHHHHH” belongs “not soluble”; to “MDDILSAALAESGLDFLCQQSSPTPSTSGSIHDDAGQSFSNNTHTPSVSQFFDETSNDSHSSSAYYTPMATPFVSTEDGGVPTSFFGMDEEDGGCTIMTTAGTSGSNNIDGIEDAGGGMYYPHVKVIPRKHTAPTVNQSEPSTPTVTIVPKKEDPLFETNTADSPTPSGDTSTTASYEGNDGLEDQETTSDRQNPMFVQTARSTDFATKKNQMAEQAHFLRFSVFWQKSGRLDTPSTSATVSPHITSSLTQRSHTSSPASSASEGTVVPPRKKGLPITTGSIVKRTVQTKDGLQTQYLKAFVNENGEKIYKLLSPVAASAVARGTLPPGMGRGGSTIGRGGTMVNKNGERLMVVKNHVGPNGQMLVKRMVSPAGTRIVANGGQGRGQPIYRGT”, “not soluble”; to “MPSIRVVNLKKYFGKVKAVDGVSFEVKDGEFVALLGPSGCGKTTTLLMLAGIYKPTSGEIYFDDVLVNDIPPKYREVGMVFQNYALYPHMTVFENIAFPLRARRISKDEVEKRVVEIARKLLIDNLLDRKPTQLSGGQQQRVALARALVKQPKVLLFDEPLSNLDANLRMIMRAEIKHLQQELGITSVYVTHDQAEAMTMASRIAVFNQGKLVQYGTPDEVYDSPKNMFVASFIGNPPTNFLRDFSVSVENKQTILKRDDVIIKLPEPVDVKLKEVVVGIRPEHCRISRERVENSIPGVVYVVEPLGRDIIVNVKTEKGEIIKVFGDTGKAPQPGENVFLVPDLRKIHLFNPETEETIL”, “soluble”. For “MLNLSGLSLSCEYQPFVCPHTKHIHGYEALARFYLGQGQAIAPNLVFEQLHENSNALAAVEFQAKTFQLKHAPARQSLFVNVDPHAANGVHTQKLLDLLSSHPQLTVEIIENTCISDAELANQLFHQFKTANLNVALDDIGAPHSMLSVDLMMNVDYLKFDRHWLNLVAEPHGIALLSALIEFGKRTGKQCILEGIETEAQLQLARELNVDLVQGFLFKPWFIRPEQSERLIC” the value was “soluble”; for “RILYRHSNAMQHEYNQMMQSIDERKQYQVGKIKMGTGDAWWPLFVKQALNEHLTKQPSASTHVEFGNHLGLMDSLINEQIEFFIGHEIVGLSSKCDVTFIPLFQTVDAYFVSSNHPLLGKTVTEEMLHEYPALSVTYDAKKFAHVIDNPIPKQNERERQQLDDRPTYEVDSLLASIDVLKESVAVMSYTRHLQSYLESFGLRCLTMENEPNPGTVGIYRHRRETSESHLDLIAGITQRAKLLN”, “not soluble”. Take “MGSDKIHHHHHHAVTSCLDTEEIEYSPDATIHAFALDTIHGVNYKFTIDQLGPDGVGLIYNQDSLPVGSDTIIDRILIKTLTTTSGIITAKNAEGQDTLFNYSDSIDFRGTMQKPMRIKVWAADMQYTKEYTISVRVHQQDPDSMNWTKMTDNFANYSGYQKSVTLNEDLLIYTSNTTAYQSSGDVISKGRSWTPVSITGLPDNIKLSSIISFGGKLYATNGESAYVSSDGALWNVATDLNKNGKVEMLIAPFPKNEGNLLGISGIAGIINNGDQSTFAITNPEATAWNIGSETVGADFPLENLSATSYLTATGIQTIAVMGNNRNANDTTSIAWTSQDGLLWIPLKTSSSTAYCPKLDNPSFFYYDNAFLAFGGNFETIYTSEAGIAWYKANKKIFLPAEFKDRGNNYSTVVDKNNFIWVIWSNGGANEVWRGRINKFGFKRQNNN”: the “soluble on expression in E. coli” value is listed as “not soluble”. As for “MELERIVSAALLAFVQTHLPEADLSGLDEVIFSYVLGVLEDLGPSGPSEENFDMEAFTEMMEAYVPGFAHIPRGTIGDMMQKLSGQLSDARNKENLQPQSSGVQGQVPISPEPLQRPEMLKEETRSSAAAAADTQDEATGAEEELLPGVDVLLEVFPTCSVEQAQWVLAKARGDLEEAVQMLVEGKEEGPAAWEGPNQDLPRRLRGPQKDELKSFILQKYMMVDSA”, the “soluble on expression in E. coli” value is listed as “soluble”.

As for “ASHMQRIAVTAEGPGLDGLVDPRFGRAAGFVVVDAATMAAEYVDNGASQTLSHGAGINAAQVLAKSGAGVLLTGYVGPKAFQALQAAGIKVGQDLEGLTVRQAVQRFLDGQVPMAAGPNK”, the “soluble on expression in E. coli” value was “soluble”.

Regarding “MAHDLQKMMDGELVRLQLEIKKEQERRLAEKMIPVFGVWQSPINQYEFADPEQAISCAAGLLDKVLREVKDDLSKEGGLQGWNGNLLRIYVQHVNESDFAVLQPYLKDK”, the “soluble on expression in E. coli” value was “not soluble”.

As to “MKRIADEELVREERAEESTQKWLQDAKFQEILGADSSHKSLFVLLSHPDGSQGILLANKSPFSEEKSDIEKLLATAQLQEISRNDIFGSYNIEIDPKLNLLKSQLIYPINDRLIAKYRQEEKFVIRETPELYETVTRPYIEKYQLNLNWVYNCLEKRSEVDKIVFEDPDNENGFVLLQDIKWDGKTLENLYVLAICHRHGLKSVRDLTGDDLEMLYNMRDKSLEAINQKYGLKTDQIKCYFHYQPSFYHLHVHFINLKYDAPASTTMSAILLDDVINNLELNPEHYKKSTLTFTRKNGDKLMEMFREALKN”, the “soluble on expression in E. coli” value is given as “not soluble”. To “MASGTASMQRPSIEKEPYYHGFLPREDVKTVLKNNGDFVIRISEPQAGSPRSNILSVMHCVPPMEEEIKHYVIKTKGDKIFIEKVSFLSIPEMVEWHLTKKESVQKDVFLIKAISRQAWELDHDNIEPLKKLGEGAFGEVMMGTMKFRKGGKSVQVAIKQAKLSNLTKEQIKEFMGEARVMRSLSHPHVVRFYGVPRRRVNVALCRSLNEFLAKCHRKLRCATPFFVCMSVNWLSVLNELRVFLE” belongs “not soluble”. Take “MSLQEVITLKVIGPWSGAELDAFMEVLKAFEKQHPNIKIEYKTYRAEDLSTILPLQFESHDTPADVIFMWGWFIAEMGKKGHLMELNNIINPEEYVPGILDSVTVDGKIYGAPFTAAAKPGFWYRKSFFEKHNLKPPKTWDDFVALLEEIKKIPGIKAPIVSGDSVGWPLSDVTEHFILTFGGKDLQLKLIKGEVKWEDPQVRKIFEEKLVPLLKAGYFSDPIEWTSAVDLWWKGEYALYFMGTWITGMVDDPNDLGLIPLPGVKAMVIAPDYLMVPKYTSHPKEALELAKFLATEGQRIHVGTKSGKLATWKKVSIDDYWAPMRDVAKIVANVESAPDLDDSVGGEWQKVFWDQLKLLWVQPDRLDEVLKTLDEKFPKEGHHHHHH”: the “soluble on expression in E. coli” value is “soluble”.

Consider “MPPAVPAAAATARQSASGRERNFKDKDKPESVRNSNIVAAKAVADAVRTSLGPRGMDKMIQSGNGDVTITNDGATILNQMSVIHPTAKMLVELSKAQDIEAGDGTTTVVVMAGALLDAAQNLLSKGIHPTTISESFQSAAAEAEKILDEMSSPVDLSNDALLNKMATTSLNSKVVSQHSWLLAPMAVNAVKKIINSENDSNVNLKMIKIIKKMGDTVEESELIEGALIDQKTMGRGAPTRIEKAKIGLIQFQISPPKTDMENQVIITDYAQMDRALKEERQYLLEICKQIKAAGCNVLLIQKSILRDAVNELALHFLAKMKIMCIKDIEREDIEFYSRILGCRPVASVDHFNADALGYADLVEEIPTGGDGKVIKVTGVQNPGHAVSILLRGSNKLVLEEADRSIHDALCVIRCLVKKKALLPGGGAPEMEIAVKLRNLAQTQHGATQYCWRAFADALELIPYTLAENAGLSPIHTVTELRNNHANGNSSYGVNVRKGYVTDMVEEDVVQPLLVTASAIKQASECVRSILKIDDIVMAVR”, for which the “soluble on expression in E. coli” value is on record as “not soluble”.
